Data as given in patent US20160287696A1, “PAN POLLEN IMMUNOGENS AND METHODS AND USES FOR IMMUNE RESPONSE MODULATION” (LA JOLLA INSTITUTE FOR ALLERGY AND IMMUNOLOGY, priority 2013, published 2016).

B1: NTGA 65: Phl p wild type sequence, Table 2 (protein)
chain: AMAVDLTPRQPTKAYGGDGGAYYEWSPAELPMLGVASIGAAKLSLAAGGMSLPSYSDSAKVAYVLQGKGTCGIVLPEATKEKVVAIKEGDALALPFGVVTWWHNTPESSTELVVLFLGDTSKGHTPGKFTNFQLTGATGIFTGFSTEFVARAWDLDQDAAASLVSTQPGTGIVKLAPGHKMPVARAEDRKGMALNCLEAKLDVDIPNGGRVVVLNTVNLPLVKEVGLGADLVRIDAHSMCSPGFSCDSAYQVTYIVRGSGRVQVVGPDGKRVLETRIEGGSLFIVPRFHVVSKIADASGMEWFSIITTPNPIFSHLAGKTSVWKAISPEVLEAAFNTTPEMEKLFRSKRLDSEIFFAPS
modifications: Phleum Pratense
B2: NTGA 76: Phl p wild type sequence, Table 2 (protein)
chain: MASHIVGYPRMGPKRELKFALESFWDGKSSAEDLEKVATDLRASIWKQMSEAGIKYIPSNTFSYYDQVLDTTAMLGAVPDRYSWTGGEIGHSTYFSMARGNATVPAMEMTKWFDTNYHFIVPELGPETKFSYASHKAVSEYKEAKALGVDTVPVLVGPVSYLLLSKAAKGVEKSFSLLSLLGGILPIYKEVVAELKAAGASWIQFDEPTLVKDLAAHELAAFSSAYAELESSLSGLNVLIETYFADVPAESYKTLTSLSGVTAYGFDLVRGTKTLDLLKSVGIPSGKYLFAGVVDGRNIWADDLAASLSTLESLEAIVGKDKLVVSTSCSLMHTAVDLVNETKLDSEIKSWLAFAAQKVVEVNALGKALVGLKDEAYFAANAAAQASRRSSPRVNNEEVQKAAAALKGSDHRRATTVSARLDAQQKKLNLPVLPTTTIGSFPQTMDLRRVRREYKAKKISEEAYVSAIKEEISKVVKIQEELDIDVLVHGEPERNDMVEYFGEQLSGFAFTANGWVQSYGSRCVKPPIIYGDVSRPNPMTVFWSKMAQSMTPRPMKGMLTGPV
modifications: Phleum Pratense
B3: NTGA 34: Phl p wild type sequence, Table 2 (protein)
chain: MSFSWICACVRAAAVAWEAGKPLSIEEVEVAPPQAMEVRVKILFTALCHTDVYFWEAKGQTPVFPRIFGHEAGGIVESVGEGVTDVAPGDHVLPVFTGECKECRHCKSAESNMCDLLRINTDRGVMISDGKSRFSIDGKPIFHFVGTSTFSEYTVMHVGCVAKINPEAPLDKVCVLSCGISTGLGASINVAKPPKGSTVAIFGLGAVGLAAAEGARIAGASRIIGIDLNANRFEEARKFGCTEFVNPKDHTKPVQEVLAEMTDGGVDRSVECTGNINAMIQAFECVHDGWGVAVLVGVPHKDAEFKTHPMNFLNERTLKGTFFGNFKPRTDLPNVVEMYMKKELEVEKFITHSVTFSEINKAFDLMAKGEGIRCIIRMEH
modifications: Phleum Pratense
B4: NTGA 5/64: Phl p wild type full length sequence from which PG+ peptides of NTGA's 5 and 64 derive (protein)
chain: MAAKCYPTVSDEYLAAVAKARRKLRGLIAEKNCAPLMLRIAWHSAGTFDVATKTGGPFGTMRCPAELAHGANAGLDIAVRLLEPIKEQVPILSYADFYQLAGVVAVEITGGPEVPFHPGRQDKTEPPPEGRLPDATLGSDHLRQVFTAQMGLSDQDIVALSGGHTLGRCHKERSGFEGAWTANPLIFDNSYFTELLTGEKEGLLQLPTDKTLLTDPAFRPLVEKYAADEDAFFADYAEAHLKLSELGFGE
modifications: Phleum Pratense
B5: NTGA 62: Phl p wild type sequence, Table 2 (protein)
chain: MRRLSLILLAAAALLAAAVSAEPGPAPKLSPDFYSQTCPRAERIIAEVVQSKQMANPTTAAGVLRVFFHDCFVSGCDASVLIAPTHYAKSEKDADINHSLPGDAFDAVVRSKLALELECPGVVSCADILAIASRVLVTMTGGPRYPVPLGRKDSLSSNPAAPDVELPHSNFTVGRIIELFTAKGFTVQEMVALSGAHTLGFSHCQEFASRIYNYRDKGGKPAPFDPSMNPTYAKGLQAACQDYQKDPTIAAFNDIMTPGKFDNMYYVNIERGLGLLSTDEDMWSDMRTKPFVQRYAANNTDFFEDFAKAIEKLSMYGVKTGADGEIRRRCDAFNSGPNIQ
modifications: Phleum Pratense
B6: NTGA 77: Phl p wild type sequence, Table 2 (protein)
chain: QEVAGDVRMTDTRADEAERGITIKSTGISLYYEMSEESLASYKGDRDGNDYLINLIDSPGHVDFSSEVTAALRITDGALVVVDCIEGVCVQTETVLRQALGERIRPVLTVNKMDRCFLELQVDGEEAYQTFSRVIENANVIMATYEDALLGDVQVYPEKGTVAFSAGLHGWAFTLTNFAKMYASKFGVDESKMMERLWGENFFDPATKKWTSKNTGSGTCKRGFVQFCYEPIKQIIEICMNDQKDKLWPMLKKLGVTMKNDEKDLMGKALMKRVMQAWLPASRALLEMMVYHLPSPSKAQRYRVENLYEGPLDDVYANAIRNCDPEGPLMLYVSKMIPASDKGRFFAFGRVFAGRVATGMKVRIMGPNFVPGQKKDLYTKSVQRTVIWMGKKQESVEDVPCGNTVALVGLDQFITKNATLTGEKEVDACPIRAMKFSVSPVVRVAVQCKVASDLPKLVEGLKRLAKSDPMVLCSIEESGEHIIAGAGELHLEICLKDLQDDFMGGAEIIVSPPVVSFRETVLDKSCRTVMSKSPNKHNRLYMEARPLEEGLPEAIDEGRIGPRDDPKVRSKILSEEFGWDKDLAKKIWCFGPETTGPNMVVDMCKGVQYLNEIKDSVVAGFQWASKEGALADENMRGICFEVCDVVLHTDAIHRGGGQVIPTARRVIFASQLTAKPRLLEPVYLVEIQAPEGALGGIYGVLNQKRGHVFEEMQRPGTPLYNIKAYLPVIESFGFSATLRAATSGQAFPQCVFDHWDVMNSDPLEVDSQSFNLVKEIRKRKGLKEQMTPLSDFEDKL
modifications: Phleum Pratense
B7: NTGA 86: Phl p wild type sequence, Table 2 (protein)
chain: MSTAEATREENVYMAKLAEQAERYEEMVEFMEKVAKTADVGELTVEERNLLSVAYKNVIGARRASWRIISSIEQKEESRGNEAYVASIKEYRTRIETELSKICDGILKLLDSHLVPSATAAESKVFYLKMKGDYHRYLAEFKAGAERKEAAENTLVAYKSAQDIALADLPTTHPIRLGLALNFSVFYYEILNSPDRACNLAKQAFDEAIAELDSLGEESYKDSTLIMQLLRDNLTLWTSDNADEGGDEIKEASKPEGEGH
modifications: Phleum Pratense
B8: NTGA 51: Phl p wild type sequence, Table 2 (protein)
chain: MSPAEPTREESVYMAKLAEQAERYEEMVEFMERVAKATGGAGPGEELSVEERNLLSVAYKNVIGARRASWRIISSIEQKEEGRGNDAHATTIRSYRSKIEAELAKICDGILALLDSHLVPSAGAAESKVFYLKMKGDYHRYLAEFKSGAERKEAAESTMNSYKAAQDIALADLAPTHPIRLGLALNFSVFYYEILNSPDRACNLAKQAFDEAISELDSLGEESYKDSTLIMQLLRDNLTLWTSDTNEDGGDEIKEAPAPKESGD
modifications: Phleum Pratense
B9: NTGA 56: Phl p wild type sequence, Table 2 (protein)
chain: MARLLFPLPIAAAAVSASSIHLAASRFRLPVVSAARRGTLFGGRVAVRAPARLATRGVSAGAEAGGSAARAGTVIGPEEALEWVKNDRRRLLHVVYRVGDLDKTIKFYTECLGMKLLRKRDIPEERYTNAFLGYGPEDSHFVVELTYNYGVESYDIGSGFGHFGIAVEDVEKTVELIKAKGGTVTREPGPVKGGKSVIAFIEDPDGYKFELIERGPTPEPLCQVMLRVGDLDRAIKFYEKAFGMELLRRKDNPQYKYTIAMMGYGPEDKNAVLELTYNYGVKEYDKGNAYAQIAIGTDDVYKTAEVVRQNGGQITREPGPLPGISTKITACTDPDGWKSVFVDNLDFLKELEE
modifications: Phleum Pratense

System: cultured PBMCs of the allergic donors
Test: ELISPOT of IL-5 or IFNg production by cultured PBMCs of TG allergic donors in response to peptide
Assay type: cell-based, human
Settings: for NTGA's containing at least one T cell epitope, Th+ (Col 2): NTGA number given = criterion met, TG allergic donors n=20; for No of PG+ & th+ peptides per NTGA / No of PP & Th+ peptides per NTGA: Table 6; for No of PG+ & th+ peptides per NTGA: PG+ peptides recognized by T cells of grass allergic donors (n=20); for No of PP & Th+ peptides per NTGA: PP peptides recognized by T cells of grass allergic donors (n=20); for # Th+: Table 7, peptides per NTGA recognized by T cells of grass allergic donors (n=20)
From the text: Table 1 indicates for each of the 397 PG+ peptides in which non-grass pollen species a matching peptide with either less than 3, less than 2 or zero mismatches are found. The number of TG grass allergic donors (n=20) with an in vitro T cell response to the TG peptide sequence is also shown.
A set of 93 proteins from Timothy grass (TG) pollen and the assembly of 822 peptides (15 mers) predicted to promiscuously bind HLA class II molecules shown in Table 9 and the immune reactivity in allergic donors have been reported in PCT application WO 2013/119863. […] Immune reactivity was determined by the production of IL-5 or IFNg from cultured PBMCs of the allergic donors in response to stimulation with a peptide and IL-5 and IFNg were measured by ELISPOT as described in Oseroff C et al, 2010.
In short, T cell immune reactivity was determined using PBMCs isolated from study participants and stored in liquid nitrogen until further use. For experimental testing, PBMCs were thawed and expanded in vitro with TG pollen extract (50 μg/mL) or the peptide pool ([…]). The TG extract and peptide pools had each been previously titrated to determine optimal stimulation concentrations.
Cytokine production by cultured PBMCs in response to antigen stimulation was measured by ELISPOT. Cells (1×10^5 cells/well) were plated and incubated with peptide (10 μg/mL), the peptide pool (5 μg/mL), or the TG extract (50 μg/mL). Phytohaemagglutinin (10 μg/mL) and medium alone were used as positive and negative controls, respectively. Samples were considered to produce a cytokine if 100 spot-forming cells (SFCs)/10^6 PBMCs were detected, with P .05 and a stimulation index of 2 or more. Criteria for individual peptides were the same except that a minimum of 20 SFCs were required for a sample to be counted as positive.
Table 3 lists the 397 PG+ peptides and indicates for each non-grass pollen species whether a matching peptide with either less than 3, less than 2 or zero mismatches could be detected. The immune reactivity of the TG peptide was assessed as the number of TG grass allergic donors (n=20) having in vitro T cell response against the TG peptide.

| Molecule | NTGA's containing at least one T cell epitope, Th+ (Col 2) | No of PG+ & th+ peptides per NTGA | No of PP & Th+ peptides per NTGA | # Th+ |
| --- | --- | --- | --- | --- |
| B1 | 65 | 2 | 0 | 0 |
| B2 | 76 | 5 | 0 | 0 |
| B3 | 34 | 3 | 1 | 0 |
| B4 | 5/64 |  |  |  |
| B5 | 62 | 1 | 0 | 2 |
| B6 | 77 | 4 | 2 | 0 |
| B7 | 86 | 1 | 1 | 0 |
| B8 | 51 | 2 | 1 | 0 |
| B9 | 56 | 1 | 1 | 0 |
